Patent publication US20050147555A1 (BRACCO SUISSE, published 2005)
One block for each binder: values may come before it. Positions of bridges follow the written chain, without caps; N, C: chain ends. Groups on a side chain read outwards from the residue. Chains are numbered I, II in the order given. No end group written: not given here. *: point of attachment. Biotin = O=C1N[C@H]2[C@H](CS[C@H]2CCCCC(=O)*)N1; fluorescein = fluorescein label on a side chain; AEEA = NCCOCCOCC(=O)O

Tests used:
Soluble KDR receptor [1] = biological target: T1, Soluble KDR receptor (UniProt P35968 20-764, limits assumed); test: SPR (Biacore 3000), soluble KDR on CM5 chip; apparent KD
T1 construct: Immobilised by amine coupling, RL 12721
Procedure: (§1) Soluble KDR receptor was cross-linked to the dextran surface of a CM5 sensor chip by the standard amine coupling procedure. […] For association, peptides were injected at 20 μL/min for 2 minutes using the kinject program. Following a 3 minute dissociation period, any remaining peptide was stripped from the KDR surface with a quickinject of 50 mM NaOH, 1M NaCl for 15 s at 75 μL/min. […] Sensorgrams were analyzed by global analysis using BIAevaluation software 3.1.

Soluble KDR receptor [2] = biological target: T1, Soluble KDR receptor; test: SPR (Biacore 3000), soluble KDR on CM5 chip; ratio of the KD of monomer P9 to the apparent KD of the tail-to-tail dimer
Procedure: as §1
By design, the interaction of a dimeric peptide with KDR is expected to proceed through two kinetic steps.

Soluble KDR receptor [3] = biological target: T1, Soluble KDR receptor; test: SPR (Biacore 3000), soluble KDR on CM5 chip; column kd,1, by the text the predominant off-rate kd,2
Procedure: as §1

Soluble KDR receptor [4] = biological target: T1, Soluble KDR receptor; test: Biacore
Procedure: as §1

Soluble KDR receptor [5] = biological target: T1, Soluble KDR receptor; test: SPR (Biacore 3000), soluble KDR on CM5 chip; ka,1 (initial encounter)
Procedure: as §1

[6] = biological target: T2, KDR-Fc (chimeric fusion of Ig Fc region with human KDR, R&D Systems #357-KD-050) (human, UniProt P35968 20-764); test: fluorescence polarisation, monodentate peptide against KDRFc
T2 construct: Bought; also called KDR Fc fusion; not shown: Ig Fc region of the bought chimera

Soluble KDR receptor [7] = biological target: T1, Soluble KDR receptor; test: SPR (Biacore 3000), soluble KDR on CM5 chip; column kd,1, by the text the predominant off-rate kd,2; predominant off-rate (kd,2 by the text) printed under the head kd,1
Procedure: as §1

Soluble KDR receptor [8] = biological target: T1, Soluble KDR receptor; test: SPR (Biacore 3000), soluble KDR on CM5 chip; ratio of the KD of monomer P10 to the apparent KD of the head-to-head dimer
Procedure: as §1

[9] = biological target: T3, KDR (VEGFR-2, Flk-1), full-length receptor on cells (human, UniProt P35968 20-1356); test: saturation binding of peptide/neutravidin-HRP complex, KDR- minus mock-transfected 293H cells
T3 construct: whole, on cells; endogenous on HUVECs in the functional assays; also called VEGF receptor 2
T3 sequence (P35968 20-1356): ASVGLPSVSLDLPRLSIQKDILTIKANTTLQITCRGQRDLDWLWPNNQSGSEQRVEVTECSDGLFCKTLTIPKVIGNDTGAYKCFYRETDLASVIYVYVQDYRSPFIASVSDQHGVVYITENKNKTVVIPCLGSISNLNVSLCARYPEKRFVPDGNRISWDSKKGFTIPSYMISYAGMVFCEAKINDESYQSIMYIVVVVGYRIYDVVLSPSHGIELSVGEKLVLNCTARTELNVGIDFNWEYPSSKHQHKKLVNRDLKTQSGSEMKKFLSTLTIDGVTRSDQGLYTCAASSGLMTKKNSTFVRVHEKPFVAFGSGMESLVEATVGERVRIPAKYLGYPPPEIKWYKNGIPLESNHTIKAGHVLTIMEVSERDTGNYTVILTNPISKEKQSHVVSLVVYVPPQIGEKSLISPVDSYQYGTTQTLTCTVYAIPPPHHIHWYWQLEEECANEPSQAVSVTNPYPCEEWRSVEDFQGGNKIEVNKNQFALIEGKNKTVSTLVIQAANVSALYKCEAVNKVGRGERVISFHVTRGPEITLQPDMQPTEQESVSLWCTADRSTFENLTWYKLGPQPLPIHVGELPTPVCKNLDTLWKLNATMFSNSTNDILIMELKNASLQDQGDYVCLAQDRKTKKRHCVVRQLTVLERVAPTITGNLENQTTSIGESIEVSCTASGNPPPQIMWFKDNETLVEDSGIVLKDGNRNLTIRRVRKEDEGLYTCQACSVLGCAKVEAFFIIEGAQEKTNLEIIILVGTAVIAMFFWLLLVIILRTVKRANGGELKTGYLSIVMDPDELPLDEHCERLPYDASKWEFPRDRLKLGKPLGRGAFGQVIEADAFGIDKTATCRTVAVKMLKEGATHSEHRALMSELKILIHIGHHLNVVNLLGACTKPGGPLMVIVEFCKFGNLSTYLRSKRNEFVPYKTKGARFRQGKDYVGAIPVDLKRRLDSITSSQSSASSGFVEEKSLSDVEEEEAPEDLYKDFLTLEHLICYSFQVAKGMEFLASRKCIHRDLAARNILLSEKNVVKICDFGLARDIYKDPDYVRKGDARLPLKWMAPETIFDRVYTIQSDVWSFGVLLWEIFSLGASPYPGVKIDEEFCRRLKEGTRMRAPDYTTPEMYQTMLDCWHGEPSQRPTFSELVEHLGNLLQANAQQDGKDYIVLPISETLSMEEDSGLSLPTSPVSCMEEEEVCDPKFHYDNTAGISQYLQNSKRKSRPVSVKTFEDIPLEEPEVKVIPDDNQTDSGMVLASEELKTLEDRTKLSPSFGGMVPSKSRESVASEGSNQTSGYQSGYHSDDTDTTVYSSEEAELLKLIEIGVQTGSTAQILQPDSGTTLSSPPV
Procedure: After incubation at room temperature, plates were transferred to 4° C. for another half-hour incubation. Subsequently, cells were washed five times with ice-cold M199 media and 1× with ice-cold PBS (in that order). After the final wash, 100 μL of ice cold TMB solution (KPL, cat. # 50-76-00) was added to each well, and each plate was incubated for 30 minutes at 37° C. in an air incubator.
Therefore, absorbance on the Y-axis of FIG. 8 is differential absorbance (KDR minus mock) and not the absolute absorbance.

T1 sequence (P35968 20-764 limits assumed): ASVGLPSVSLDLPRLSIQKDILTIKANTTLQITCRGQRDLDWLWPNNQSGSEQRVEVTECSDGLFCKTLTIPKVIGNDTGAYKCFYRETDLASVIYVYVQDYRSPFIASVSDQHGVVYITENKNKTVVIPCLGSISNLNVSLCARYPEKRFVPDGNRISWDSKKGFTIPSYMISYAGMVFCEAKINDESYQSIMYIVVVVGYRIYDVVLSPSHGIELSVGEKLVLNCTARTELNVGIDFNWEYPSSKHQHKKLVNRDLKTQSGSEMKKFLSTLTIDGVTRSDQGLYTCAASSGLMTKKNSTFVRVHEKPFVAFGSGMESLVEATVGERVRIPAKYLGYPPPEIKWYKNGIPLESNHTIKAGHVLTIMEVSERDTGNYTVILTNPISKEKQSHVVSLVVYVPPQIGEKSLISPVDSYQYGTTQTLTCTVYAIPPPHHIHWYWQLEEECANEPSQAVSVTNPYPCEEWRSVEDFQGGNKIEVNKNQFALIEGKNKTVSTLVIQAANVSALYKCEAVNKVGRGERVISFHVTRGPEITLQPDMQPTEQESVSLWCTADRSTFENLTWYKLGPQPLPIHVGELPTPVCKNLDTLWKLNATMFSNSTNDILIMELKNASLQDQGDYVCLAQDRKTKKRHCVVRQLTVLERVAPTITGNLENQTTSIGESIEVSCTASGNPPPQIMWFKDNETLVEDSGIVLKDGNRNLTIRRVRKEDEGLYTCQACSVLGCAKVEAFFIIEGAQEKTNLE
T2 sequence (P35968 20-764, stated change not applied): as the sequence (P35968 20-764 limits assumed) above

Binder: AGPTWCEDDWYYCWLFGTGGGK(fluorescein)-NH2 (disulfide 6-13 (inferred)) [P12, monodentate peptide measured by FP]
Kd [6]: 3 nM

B3: P6-XB (4X) on neutravidin-HRP (other)
peptide: Ac-GDSRVCWEDSWGGEVCFRYDPGGGK([AEEA-AEEA-Biotin])-NH2
modifications: disulfide 6-16; also: four peptides bound to neutravidin-HRP
notes: Peptides held on the four biotin sites of neutravidin-HRP; also called tetrameric P6-XB; P6-XB Tetramer
Kd [9]: 10 nM

Now from value to binder:

Kd (Soluble KDR receptor [1]): 11.1 nM
fold increase in affinity over monomer P9 (Soluble KDR receptor [2]): > 60 fold
koff (Soluble KDR receptor [3]): 0.00128 s⁻¹
Kd (Soluble KDR receptor [4]): 11 nM
kon (Soluble KDR receptor [5]): 115000 M⁻¹ s⁻¹
B1: Tail-to-tail dimer of P9 and P10 (peptide)
peptide 1: Ac-AQEPEGYAYWEVITLYHEEDGDGGK-NH2
peptide 2: Ac-AQAFPRFGGDDYWIQQYLRYTDGGK-NH2
modifications: bridge I:25-II:25; not fully specified (bridges); printed as Ac-AQEPEGYAYWEVITLYHEEDGDGGK(Ac-AQAFPRFGGDDYWIQQYLRYTDGGK(—(O═)C(CH2CH2O)4CH2CH2NHC(═O)CH2CH2C(CH3)═NOCH2C(═O)NH(CH2CH2O)4CH2CH2C(═O)—)NH2)NH2; also: tail-to-tail dimer of two peptides joined through the Lys25 side chains
notes: also called T-T dimer; D31

Kd (Soluble KDR receptor [1]): 2.24 nM
koff (Soluble KDR receptor [7]): 0.000249 s⁻¹
fold increase in affinity over monomer P10 (Soluble KDR receptor [8]): > 560 fold
kon (Soluble KDR receptor [5]): 111000 M⁻¹ s⁻¹
B2: Head-to-head dimer of P9 and P10 (peptide)
peptide 1: AQEPEGYAYWEVITLYHEEDGDGG
peptide 2: AQAFPRFGGDDYWIQQYLRYTDGG
modifications: not fully specified; N-terminal amino group carries an NH-PEG4-CO linker and amino-oxyacetyl group, oxime-linked to the other chain; N-terminal amino group carries an NH-PEG4-CO linker and levulinyl group, oxime-linked to the other chain
notes: also called H-H dimer
